The target in test [1] is T1, human PD-L1 expressed on cells (human, UniProt Q9NZQ7 19-290).
T1 construct: also called huPDL1; human PD-L1 on HEK cells
The test is described as follows: cell binding titration, HEK cells expressing human PD-L1.

Test [2] concerns the target T2, murine PD-L1 expressed on cells (murine, UniProt Q9EP73 19-290).
T2 construct: whole, on cells; also called muPDL1; mouse PD-L1
The test is described as follows: cell binding titration, A20 cells expressing murine PD-L1.

Test [3] has as its target T3, cyno PD-L1 expressed on cells (cynomolgus).
T3 construct: whole, on cells; also called cynomolgus PD-L1
The test is described as follows: cell binding titration (MFI); binder and target taken from the legend paragraph 94 and paragraph 377 (parental clone mAb1, CHO cells expressing cynomolgus PD-L1); the panel itself prints 'mAb28' and 'CHO/CyPD-1'.

The target in test [4] is T3, cyno PD-L1 expressed on cells. The experiment in a line: cell binding EC50 on HEK-cyno PD-L1; fold improvement, reference taken as parent mAb24.
Test [5] has as its target T4, purified recombinant His tagged human PD-L1 (human, UniProt Q9NZQ7 19-238).
T4 construct: not shown: His tag
The test is described as follows: SPR (Carterra MX96), antibody on chip, His-tagged human PD-L1 injected.

Test [6] addresses T2, murine PD-L1 expressed on cells. The experiment in a line: cell binding EC50 on A20-murine PD-L1; fold improvement, reference taken as parent mAb24.
Test [7] concerns the target T3, cyno PD-L1 expressed on cells. The experiment in a line: cell binding titration, HEK cells expressing cyno PD-L1.
The target in test [8] is T1, human PD-L1 expressed on cells. The experiment in a line: cell binding titration (MFI); binder and target taken from the legend paragraph 94 and paragraph 377 (parental clone mAb1, CHO cells expressing human PD-L1); the panel itself prints 'mAb28' and 'CHO/HuPD-1'.
Test [9] has the same target. The test is described as follows: cell binding EC50 on HEK-human PD-L1; fold improvement, reference taken as parent mAb24.
Test [10] deals with T4, purified recombinant His tagged human …. The test is described as follows: SPR KD; fold improvement, reference taken as parent mAb24.
The target of test [11] is T5, purified recombinant His tagged human PD-1 (human, UniProt Q15116 25-170).
T5 construct: not shown: His tag
The experiment in a line: SPR (Carterra MX96), antibody on chip, His-tagged human PD-1 injected.

In test [12] the target is T6, cyno PD-1 expressed on cells (cynomolgus).
T6 construct: whole, on cells; also called cyPD-1; cynomolgus PD-1
The test is described as follows: cell binding EC50 on CHO-cyno PD-1; fold improvement over parent mAb25.

Test [13] concerns the target T7, murine PD-1 expressed on cells (murine, UniProt Q02242 25-288).
T7 construct: whole, on cells; also called muPD-1; mouse PD-1
T7 sequence (looked up): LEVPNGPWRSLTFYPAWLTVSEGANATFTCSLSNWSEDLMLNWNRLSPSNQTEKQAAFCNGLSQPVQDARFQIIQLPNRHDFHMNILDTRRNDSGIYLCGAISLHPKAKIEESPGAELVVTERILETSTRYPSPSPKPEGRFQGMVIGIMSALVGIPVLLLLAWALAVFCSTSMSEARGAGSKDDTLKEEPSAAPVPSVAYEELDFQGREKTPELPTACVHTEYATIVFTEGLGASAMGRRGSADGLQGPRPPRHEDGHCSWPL
The experiment in a line: cell binding titration, CHO cells expressing murine PD-1.

For test [14], the target named is T8, human PD-1 expressed on cells (human, UniProt Q15116 25-288).
T8 construct: also called huPD-1; CHO cells expressing human PD-1
The experiment in a line: cell binding titration, CHO cells expressing human PD-1.

Test [15] has as its target T8, human PD-1 expressed on cells. The test is described as follows: cell binding EC50 on CHO-human PD-1; fold improvement over parent mAb25.
Test [16] has as its target T5, purified recombinant His tagged human …. The experiment in a line: SPR KD; fold improvement over parent mAb25.
Test [17] addresses T6, cyno PD-1 expressed on cells. The test is described as follows: cell binding titration (MFI) on CHO cells expressing cynomolgus PD-1, panel titled 'Cell Binding: CHO/CyPD-1'.
The target of test [18] is T7, murine PD-1 expressed on cells. The test is described as follows: cell binding titration (MFI) on CHO cells expressing mouse PD-1, panel titled 'Cell Binding: CHO/MsPD-1'.
The target in test [19] is T6, cyno PD-1 expressed on cells. The test is described as follows: cell binding titration, CHO cells expressing cyno PD-1.
Test [20] concerns the target T8, human PD-1 expressed on cells. The test is described as follows: cell binding titration (MFI) on CHO cells expressing human PD-1, panel titled 'Cell Binding: CHO/HuPD-1'.

From patent US12503511 (COMPASS THERAPEUTICS, dated 2025) come the findings set out here.

T8 sequence (Q15116 25-288 limits assumed): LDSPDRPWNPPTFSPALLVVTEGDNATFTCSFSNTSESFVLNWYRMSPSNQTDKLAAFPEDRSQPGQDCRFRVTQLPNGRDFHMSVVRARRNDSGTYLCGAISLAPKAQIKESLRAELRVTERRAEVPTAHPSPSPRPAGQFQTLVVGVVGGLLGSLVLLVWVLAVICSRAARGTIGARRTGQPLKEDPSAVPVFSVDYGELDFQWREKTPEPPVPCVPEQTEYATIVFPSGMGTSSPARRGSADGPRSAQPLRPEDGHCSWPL
T1 sequence (Q9NZQ7 19-290 limits assumed): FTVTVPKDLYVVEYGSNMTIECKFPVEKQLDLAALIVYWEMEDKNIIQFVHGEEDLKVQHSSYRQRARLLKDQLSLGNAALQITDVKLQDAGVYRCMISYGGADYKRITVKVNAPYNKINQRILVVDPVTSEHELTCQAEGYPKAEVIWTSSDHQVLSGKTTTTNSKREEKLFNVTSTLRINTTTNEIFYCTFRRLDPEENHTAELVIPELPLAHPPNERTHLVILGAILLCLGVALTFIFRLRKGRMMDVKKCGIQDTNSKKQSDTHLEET
T4 sequence (Q9NZQ7 19-238 limits assumed): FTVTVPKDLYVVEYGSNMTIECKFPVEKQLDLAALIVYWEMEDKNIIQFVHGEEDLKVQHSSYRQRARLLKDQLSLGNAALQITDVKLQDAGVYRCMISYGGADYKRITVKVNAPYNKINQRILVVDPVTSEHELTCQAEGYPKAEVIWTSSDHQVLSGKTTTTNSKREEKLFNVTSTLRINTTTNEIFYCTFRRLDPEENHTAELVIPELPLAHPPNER
T2 sequence (Q9EP73 19-290): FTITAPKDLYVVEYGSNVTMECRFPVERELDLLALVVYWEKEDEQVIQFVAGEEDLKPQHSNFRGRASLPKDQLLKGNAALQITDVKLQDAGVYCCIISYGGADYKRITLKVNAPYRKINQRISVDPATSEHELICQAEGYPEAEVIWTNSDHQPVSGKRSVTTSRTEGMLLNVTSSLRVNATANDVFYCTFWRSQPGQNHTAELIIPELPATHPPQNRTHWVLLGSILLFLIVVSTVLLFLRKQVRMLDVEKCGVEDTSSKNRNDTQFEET
T5 sequence (Q15116 25-170 limits assumed): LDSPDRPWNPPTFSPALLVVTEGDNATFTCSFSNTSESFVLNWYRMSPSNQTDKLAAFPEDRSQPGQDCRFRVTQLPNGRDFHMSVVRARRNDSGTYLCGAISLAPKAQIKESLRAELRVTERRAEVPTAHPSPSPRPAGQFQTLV

B1: mAb1 (antibody, V domains shown)
VH: QVQLVQSGAEVKKPGSSVKVSCKASGGTFSSYAINWVRQAPGQGLEWMGGIIPILGAATYAQKFQGRVTITADESTSTAYMELSSLRSEDTAVYYCARLKGELKDAFDIWGQGTLVTVSS
VL: not shown
notes: also called parental clone mAb1; anti-PD-L1 antibody mAb1
As usually defined, the EC50 is the concentration needed to bring the measured effect to its halfway point. A high value points to weaker potency. What is called EC50 (read off the curve) is the concentration that produces a half-maximal response. The term Kd denotes the concentration at which binding is half-saturated. For the molecule B1, the EC50 in [1] came to 0.04 nM; in [2], 0.74 nM; in [7], 0.09 nM. Moreover, the “EC50 (read off the curve)” value in test [3] was around 0.04 nM; in [8], around 0.1 nM. In addition, the “Fold Improvement” value in test [4] turned out to be 3.21 fold; in [6] it was 5.26 fold; in test [9], 3.3 fold; in [10], 1.1 fold. In addition, the dissociation constant Kd in test [5] turned out to be 4.16 nM.

B2: mAb28 (antibody, V domains shown)
VH: EVQLLESGGGLVQPGGSLRLSCAASGFTFSSYAMLWVRQAPGKGLEWVSAISNSGTYTYYADSVKGRFTISRDNSKNTLYLQMNSLRAEDTAVYYCARGLDFIVGYTGNDYWGQGTLVTVSS
VL: not shown
notes: also called parental clone mAb28; anti-PD-1 IgG1 antibody (mAb28)
With B2, in [11], the Kd amounted to 5.6 nM. Also, the “Fold improvement over Parent” value in [12] was determined as 5.8 fold; in test [15] it was 0.2 fold; in [16], 43 fold. Moreover, the EC50 in [13] was found to be 0.814 nM; in test [14] it was 3.94 nM; in test [19] it was 1.48 nM. In addition, the figures for the “EC50 (read off the curve)” value in test [17], in test [18] and in test [20] were around 0.4 nM, around 0.3 nM and around 0.6 nM, respectively.
